Data published in patent publication US20190248902A1 (published 2019).
Residue numbers refer to the chain shown, from its start.

T1: soluble human ASGR-1 carbohydrate binding domain (CBD; amino acid residues 154-281; N-terminal 6xHis tag) (human, UniProt P07306 154-281)
T1 construct: also called ASGR-1 CBD
T1 sequence: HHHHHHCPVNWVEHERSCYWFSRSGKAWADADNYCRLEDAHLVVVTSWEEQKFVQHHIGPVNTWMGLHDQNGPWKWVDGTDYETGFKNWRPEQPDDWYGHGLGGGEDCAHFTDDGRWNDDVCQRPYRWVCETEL

T2: human ASGR-1 (wild type) (human, UniProt P07306 1-291)
T2 construct: also called wt ASGR1; huASGR-1
T2 sequence: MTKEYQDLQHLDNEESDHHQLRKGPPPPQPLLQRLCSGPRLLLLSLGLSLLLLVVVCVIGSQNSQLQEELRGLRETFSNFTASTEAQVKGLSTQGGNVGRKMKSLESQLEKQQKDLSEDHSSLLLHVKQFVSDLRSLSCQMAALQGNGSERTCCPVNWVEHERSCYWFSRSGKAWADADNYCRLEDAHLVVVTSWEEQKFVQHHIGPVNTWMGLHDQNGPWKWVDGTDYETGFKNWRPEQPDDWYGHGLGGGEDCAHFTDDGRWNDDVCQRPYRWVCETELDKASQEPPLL

T3: human ASGR-1 mutant construct H203 (human, UniProt P07306 1-291)
T3 construct: Arg/Glu scanning: non-arginine residues were changed to arginine; Transiently expressed on CHO-S cells
T3 sequence: T2 sequence with H203R

B1: 4H6 (antibody, V domains shown)
VH: QVQLVQSGAEVKKPGASVKVSCKASGYTFTDYYLHWVRQAPGQGLEWMGWIHPNSGGTNYAQKFQGRVTMTRDTSISTAYMGLSSLRSDDTAVYYCARDGTSSFDYWGQGTLVTVSS
VL: DIQMTQSPSSVSASVGDRVTITCRASQGISRWLAWYQQKPGKAPKLLIYGASSLQSGVPSRFSGSGSGTDFTLTISSLQPEDFAIYYCQQANSFPFTFGPGTKVDIK
notes: mAb
B2: 7F4 (antibody, V domains shown)
VH: QLQLQESGPGLVKPSETLSLTCTVSGGSISRSSYYWGWIRQPPGKGLEWIGNIYYSGATYYNPSLKSRVTISVDTSTNQFSLKLSSVTAADTAVYYCARHSGSWSLDYWGQGTLVTVSS
VL: DIQMTQSPSSLSASVGDRVTITCRTSQGIRNDLGWYQQKPGKAPKRLIYAASNLQSGVPSRFSGSGSGTEFTLTISSLQPEDFATYYCLQHSAYPLTFGGGTKVEIK
notes: mAb
B3: 198D2 (antibody, V domains shown)
VH: QVQLVESGGGVVQPGRSLRLSCAASGFTFRSYGMHWVRQAPGKGLEWVAVIIYDGSYKYYADSVKGRFTISRDNSKNTLYLQMNSLRAEDTAVYYCARTYSGGMDVWGQGTTVTVSS
VL: QSVLTQPPSVSAAPGQKVTISCSGSSSNIGSNYVSWYQQLPGTAPKVLIYDNNKRPSGIPDRFSGSKSGTSATLGITGLQTGDEADYYCGTWDSRLNVGVFGGGTKLTVL
notes: mAb
B4: 54E9 (antibody, V domains shown)
VH: QVQLVQSGAEVKKPGASVKVSCKASGYTFNSYGISWVRLAPGQGLEWMGWISAYNGNTKNAQKLQGRVTMTTDTSTSTAYMELRSLRSDDTAVYYCARHDFWSGYYKGMDVWGQGTTVTVSS
VL: not shown
notes: mAb
B5: 202A3 (antibody, V domains shown)
VH: QVQLEQSGAEVKKPGASVKVSCKASGYTFTSYDINWVRQATGQGLEWLGWMNPKRGNTGYAQKFQGRVTMTRNTSISTAHMELSSLRSEDTAVYYCARGRYSREDYYYYYDMDVWGQGTTVTVSS
VL: B2 VL with T5S, T25A, Y49C, N53R, T85I, S92H, A93D, L96F, G100P, E105D
notes: mAb
B6: 4B1 (antibody, V domains shown)
VH: QVQLQESGPGLVKPSETLSLTCSVSGDSISSYSWSWIRQPAGKGLEWIGRIYTSGSTNYIPSLKSRITMSVDTSKKQFSLKLSSVTAADTAVYYCARDLKSSGCLFFDYWGQGTLVTVSS
VL: DIQMTQSPSSLSASVGDRVTITCRASHTIRTYLNWYQQKPGKAPKLLIYAASSLQSGVPSRINGSGSGTDFTLTITNLQPEDFATYYCQQSYNISFTFGPGTKVDIK
notes: mAb
B7: 12D2 (antibody, V domains shown)
VH: EVQLVESGGGLVKPGGSLRLSCAASGFTFSSYSMNWVRQAPGKGLEWVSSISSSSSYIYYADSVKGRFTISRDNAKNSLYLQMNSLRAEDTAVYYCARLGDYWGQGTLVAVSS
VL: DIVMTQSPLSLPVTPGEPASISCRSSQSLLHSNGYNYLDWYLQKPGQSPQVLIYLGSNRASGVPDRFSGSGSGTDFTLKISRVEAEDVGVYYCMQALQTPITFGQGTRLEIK
notes: mAb

The binders below were run against T1, soluble human ASGR-1 carbohydrate … (assay: Octet BLI, mAb on AR2G tips, 1:1 fit).
From the text: To quantitate the binding affinity of specific antibodies for ASGR-1 (either purified from hybridoma supernatants or made recombinantly), association and dissociation rates can be measured using a ForteBio Octet instrument. […] Experimental kinetic results were globally fit to a 1:1 binding model in order to determine the association and dissociation rate constants as well as the equilibrium dissociation constant. Association and dissociation times were chosen to ensure that curvature was present during association curves and measured dissociation levels dropped at least 5% from starting levels. All Octet buffers contained 10 mM Tris (pH7.5), 150 mM NaCl, 1 mM CaCl₂), 0.10 mg/ml BSA and 0.13% Triton X-100. Octet assays were run at 27° C. Because this assay only measures binding to the ASGR-1 CBD, antibodies that recognize epitopes partially or entirely outside the CBD and/or recognize ASGR-1 in the context of a native ASGR complex, for example, as could occur on cell membranes, may not score as positive in this assay.

Binder	Kd [nM]
B1	4.8
B2	1.2

The binders below were run against T2, human ASGR-1 (wild type) (assay: FACS, transfected CHO-S cells, mAb 5 ug/ml).
Summary of the method: (§1)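 Transiently transfected CHO-S cells expressing wild-type or mutant hASGR-1 incubated with antibody at 5 ug/ml, 1 h at 4 °C; bound antibody detected by Alexa Fluor 647 anti-Fc plus 7-AAD, by flow cytometry. Binding normalized to expression using an unaffected antibody (65C12), then to wild type; hits defined as >3× IQR above third quartile.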

Binder	FACS Binding Geomean
B3	16900
B4	38600
B5	24800

What follows are binders tested against T3, human ASGR-1 mutant construct H203 (assay: FACS, transfected CHO-S cells, mAb 5 ug/ml).
Summary of the method: as §1

Binder	FACS Binding Geomean
B3	7140
B4	15300
B5	12500

What follows are binders tested against T2, human ASGR-1 (wild type) (assay: FACS ratio: 65C12 geomean / this mAb geomean).
Summary of the method: (§2)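 CHO-S cells transiently expressing wild-type or point-mutant hASGR-1 were stained with antibody at 5 ug/ml for 1 h at 4 °C. Bound antibody was detected by Fc-specific Alexa 647 secondary plus 7-AAD and read by flow cytometry. Ratio is 65C12 geomean divided by test mAb geomean, normalizing for expression.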

Binder	Expression Normalization to mAb 65C12
B3	3.32
B4	1.45
B5	2.26

What follows are binders tested against T3, human ASGR-1 mutant construct H203 (assay: FACS ratio: 65C12 geomean / this mAb geomean).
Summary of the method: as §2

Binder	Expression Normalization to mAb 65C12
B3	3.61
B4	1.68
B5	2.06

Each binder was assayed against T3, human ASGR-1 mutant construct H203 (assay: FACS ratio: H203 normalized value / wt normalized value).
Summary of the method: as §1

Binder	Normalization to wt ASGR1 Binding
B3	1.09
B4	1.16
B5	0.913

Each binder was assayed against T2, human ASGR-1 (wild type) (assay: flow cytometry, CHO-S:huASGR-1 cells, 11-point titration).
Experimental: CHO—S stable high-expressing cell line were developed for both human ASGR-1 as well as mouse ASGR-1. A typical 384 well plate multiplex flow cytometery-based cell binding method is described as followed: Parental CHO—S cells and CHO—S:huASGR-1 cells were respectively labeled using a CellTrace CFSE Cell Proliferation Kit (ThermoFisher Catalog #C34554) and CellTrace Violet Cell Proliferation Kit (ThermoFisher Catalog#C34557) CHO—S:muASGR-1 were not labeled. 20 ul of cells at 4C were added to duplicate wells of the 384 well plate. The cells were equally mixed from all three cell lines (30K cells/well). Then 20 ul of the ASGR-1 antibodies (either purified from hybridoma supernatants or made recombinantly) were added in an 11-point dose response using a 1:2 fold serial dilution starting at 100 nM. The cells and antibodies were incubated for 30 min at 4C and then spun down and washed twice with FACS buffer containing 1 mM CaCl2. 30 ul of anti-hulgG-APC secondary antibodies were then added at a 1:1000 dilution) for 30 min at 4C and then washed once with the same buffer. 60 ul of PI (1:1000) was added and then the cells were read by a core flow cytometry facility. The cells were gated first for live cells, then for single cells and finally for the cell dyes to separate the mixed cells into the three different cell populations. Histograms of signal vs count representing the binding profile of each antibody at each antibody concentration were automatically analyzed for the median of the binding signal and then a binding graph was made with log 10 antibody concentration in nM on the X axis with […] from the duplicate wells on the Y-axis. The binding curves were fit with a standard four parameter sigmoidal binding curve and EC50's reported for all graphs with full curves.

Binder	EC50 [nM]
B1	1.7
B3	0.14
B6	4.1
B7	3.2
B4	5
B5	0.8
B2	5.4
